The subject of this series is Escherichia coli TOP10. The series can be described thus: shrunken log2 fold change of peptide-encoding DNA abundance (4.5 h post-induction vs induction); higher = less antimicrobial activity (less host growth inhibition). The conditions noted are these: time post-induction: 4.5 h; library: site-saturation at positions 5, 18, 19, 20.
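Note: peptides expressed intracellularly from a pBAD plasmid library in pooled LB shake-flask culture, induced with 0.3% L-arabinose, DNA abundance read by NGS, three biological replicates, DESeq2 with apeglm shrinkage.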

Regarding RRIRNRPPRLPRPRPRPWNSPRP, the “shrunken log2 fold change” value was -0.281.
The value for RRIRARPPRLPRPRPRPNLKPRP was 0.164; that for RRIRVRPPRLPRPRPRPTQDPRP was 0.386; that for RRIRPRPPRLPRPRPRPRRPPRP was 0.489.
The value for RRIRERPPRLPRPRPRPGSYPRP was -0.868; that for RRIRYRPPRLPRPRPRPAAMPRP was 1.99.
The value for RRIRHRPPRLPRPRPRPNTMPRP was -0.905; that for RRIRDRPPRLPRPRPRPQTGPRP was -0.283.
In the case of RRIRCRPPRLPRPRPRPRKAPRP, the “shrunken log2 fold change” value worked out at 0.578.
The figure for RRIRYRPPRLPRPRPRPHPTPRP is -0.289.
RRIRRRPPRLPRPRPRPEKRPRP: the “shrunken log2 fold change” value turned out to be 0.296.
The figure for RRIRGRPPRLPRPRPRPDETPRP is 0.349; for RRIRKRPPRLPRPRPRPQTFPRP it is 0.117.
Take RRIRMRPPRLPRPRPRPTGHPRP: the “shrunken log2 fold change” value was 0.63.
The figure for RRIRERPPRLPRPRPRPYAIPRP is -0.52.
The value for RRIRARPPRLPRPRPRPWSSPRP was -0.656; that for RRIRPRPPRLPRPRPRPDEHPRP was -0.205.
The value for RRIRYRPPRLPRPRPRPIIQPRP was -0.0128.
As for RRIRRRPPRLPRPRPRPYDCPRP, the “shrunken log2 fold change” value was -0.113.
The figure for RRIRIRPPRLPRPRPRPNMWPRP is -0.59.
The figure for RRIRKRPPRLPRPRPRPLAVPRP is 0.0855.
The value for RRIRARPPRLPRPRPRPNSMPRP was -0.527.
Turning to RRIRGRPPRLPRPRPRPPVDPRP, the “shrunken log2 fold change” value was determined as 0.953.
The value for RRIRDRPPRLPRPRPRPAIIPRP was 0.0892.
The figure for RRIRIRPPRLPRPRPRPGMMPRP is -0.453; for RRIRARPPRLPRPRPRPIGHPRP it is 0.0734; for RRIRDRPPRLPRPRPRPGWCPRP it is 0.201.
The figure for RRIRQRPPRLPRPRPRPIWTPRP is 0.0198; for RRIRPRPPRLPRPRPRPETQPRP it is 0.15.
With RRIRFRPPRLPRPRPRPDDQPRP, the “shrunken log2 fold change” value was -0.151.
The figure for RRIRARPPRLPRPRPRPLFDPRP is 0.28.
In the case of RRIRQRPPRLPRPRPRPRGEPRP, the “shrunken log2 fold change” value was found to be 0.348.
The figure for RRIRMRPPRLPRPRPRPCFGPRP is -0.23; for RRIRQRPPRLPRPRPRPTLCPRP it is 0.00185.
The figure for RRIRLRPPRLPRPRPRPIGIPRP is -0.179; for RRIRVRPPRLPRPRPRPPKNPRP it is 0.192.
The value for RRIRKRPPRLPRPRPRPFANPRP was -0.0377; that for RRIRPRPPRLPRPRPRPGMRPRP was 0.852.
As to RRIRARPPRLPRPRPRPWGNPRP, the “shrunken log2 fold change” value worked out at 0.00277.
Take RRIRLRPPRLPRPRPRPHAIPRP: the “shrunken log2 fold change” value is -0.346.
As to RRIRWRPPRLPRPRPRPQLQPRP, the “shrunken log2 fold change” value amounted to 0.229.
The value for RRIRFRPPRLPRPRPRPMISPRP was -0.446; that for RRIRFRPPRLPRPRPRPWKVPRP was -0.00133.
The value for RRIRIRPPRLPRPRPRPCEAPRP was -0.395; that for RRIRLRPPRLPRPRPRPLQWPRP was 0.126.
The figure for RRIRSRPPRLPRPRPRPIRCPRP is 0.00778; for RRIRDRPPRLPRPRPRPYSVPRP it is -0.0716.
For the sequence RRIRFRPPRLPRPRPRPTSEPRP, the “shrunken log2 fold change” value was found to be 0.0114.
Consider RRIRKRPPRLPRPRPRPHMCPRP, for which the “shrunken log2 fold change” value is -0.066.
The value for RRIRARPPRLPRPRPRPLYPPRP was -0.221; that for RRIRHRPPRLPRPRPRPPHWPRP was 0.375.
The value for RRIRQRPPRLPRPRPRPCCIPRP was -0.159; that for RRIRVRPPRLPRPRPRPWCEPRP was -0.293.
The figure for RRIRRRPPRLPRPRPRPTVAPRP is 0.699; for RRIRGRPPRLPRPRPRPDKTPRP it is 0.104.
In the case of RRIRSRPPRLPRPRPRPDCAPRP, the “shrunken log2 fold change” value is 0.187.
For the sequence RRIRNRPPRLPRPRPRPNHPPRP, the “shrunken log2 fold change” value is -0.318.
Consider RRIRIRPPRLPRPRPRPMYGPRP, for which the “shrunken log2 fold change” value was -0.437.
The value for RRIRLRPPRLPRPRPRPSRMPRP was -0.241; that for RRIRMRPPRLPRPRPRPACPPRP was 0.262; that for RRIRMRPPRLPRPRPRPRMGPRP was 1.11.
The value for RRIRTRPPRLPRPRPRPNLPPRP was 0.0474; that for RRIRYRPPRLPRPRPRPLLGPRP was -0.25; that for RRIRFRPPRLPRPRPRPDRLPRP was 0.147.
The figure for RRIRGRPPRLPRPRPRPEQRPRP is 0.926.
As for RRIRKRPPRLPRPRPRPLEWPRP, the “shrunken log2 fold change” value is -0.0047.
Turning to RRIRYRPPRLPRPRPRPFAHPRP, the “shrunken log2 fold change” value was -0.00804.
RRIRERPPRLPRPRPRPKIRPRP: the “shrunken log2 fold change” value was -0.121.
With RRIRGRPPRLPRPRPRPLKSPRP, the “shrunken log2 fold change” value is 0.426.
The figure for RRIRARPPRLPRPRPRPTTMPRP is 0.156; for RRIRGRPPRLPRPRPRPCEIPRP it is 0.128.
The figure for RRIRHRPPRLPRPRPRPLVIPRP is -0.343; for RRIRKRPPRLPRPRPRPHPQPRP it is 0.223; for RRIRERPPRLPRPRPRPASIPRP it is -0.327.
The figure for RRIRGRPPRLPRPRPRPQTTPRP is 0.889.
In the case of RRIRCRPPRLPRPRPRPVYSPRP, the “shrunken log2 fold change” value was -0.156.
The value for RRIRTRPPRLPRPRPRPYEYPRP was 0.0353; that for RRIRQRPPRLPRPRPRPSVEPRP was 0.218; that for RRIRHRPPRLPRPRPRPSWRPRP was -0.0493.
The figure for RRIRDRPPRLPRPRPRPTSQPRP is 0.495; for RRIRQRPPRLPRPRPRPLAYPRP it is -0.0738.
The value for RRIRNRPPRLPRPRPRPKPWPRP was 0.217; that for RRIRERPPRLPRPRPRPQSDPRP was -0.134.
Regarding RRIRGRPPRLPRPRPRPFQDPRP, the “shrunken log2 fold change” value is -0.000102.
Consider RRIRKRPPRLPRPRPRPQMYPRP, for which the “shrunken log2 fold change” value is -0.192.
The figure for RRIRCRPPRLPRPRPRPATRPRP is 0.366; for RRIRPRPPRLPRPRPRPWLSPRP it is -0.119; for RRIRTRPPRLPRPRPRPDKAPRP it is -0.0271.
The figure for RRIRRRPPRLPRPRPRPRKGPRP is 0.215; for RRIRPRPPRLPRPRPRPRIYPRP it is 0.0335.
The figure for RRIRKRPPRLPRPRPRPFPRPRP is 0.297; for RRIRRRPPRLPRPRPRPACEPRP it is 0.192; for RRIRKRPPRLPRPRPRPEKIPRP it is 0.185.
For the sequence RRIRDRPPRLPRPRPRPGETPRP, the “shrunken log2 fold change” value is 0.0408.
The figure for RRIRHRPPRLPRPRPRPLTTPRP is -0.142; for RRIRTRPPRLPRPRPRPGQAPRP it is -0.228; for RRIRYRPPRLPRPRPRPKDSPRP it is -0.0869.
Take RRIRNRPPRLPRPRPRPYVTPRP: the “shrunken log2 fold change” value is -0.553.
The value for RRIRWRPPRLPRPRPRPYSKPRP was -0.492; that for RRIRERPPRLPRPRPRPAHGPRP was 0.131.
The figure for RRIRHRPPRLPRPRPRPYCEPRP is -0.114; for RRIRTRPPRLPRPRPRPQMMPRP it is -0.0792; for RRIRPRPPRLPRPRPRPWIEPRP it is -0.162.
For the sequence RRIRLRPPRLPRPRPRPEEDPRP, the “shrunken log2 fold change” value was -0.00133.
The figure for RRIRRRPPRLPRPRPRPCWNPRP is -0.00252; for RRIRRRPPRLPRPRPRPIIKPRP it is -0.265.
The figure for RRIRPRPPRLPRPRPRPMIFPRP is -0.214; for RRIRWRPPRLPRPRPRPCVHPRP it is 0.0249.
The figure for RRIRYRPPRLPRPRPRPMAAPRP is -0.115; for RRIRERPPRLPRPRPRPKIVPRP it is -0.0778.
In the case of RRIRMRPPRLPRPRPRPENWPRP, the “shrunken log2 fold change” value amounted to 0.795.
For RRIRHRPPRLPRPRPRPRHQPRP, the “shrunken log2 fold change” value worked out at 0.0252.
Turning to RRIRYRPPRLPRPRPRPNWYPRP, the “shrunken log2 fold change” value is -1.48.
The value for RRIRPRPPRLPRPRPRPAITPRP was -0.361; that for RRIRFRPPRLPRPRPRPQVQPRP was -0.0485.
The figure for RRIRVRPPRLPRPRPRPYHPPRP is -0.406; for RRIRSRPPRLPRPRPRPDAPPRP it is 0.49; for RRIRQRPPRLPRPRPRPYPSPRP it is -0.161.
Consider RRIRIRPPRLPRPRPRPMFMPRP, for which the “shrunken log2 fold change” value was -0.383.
The value for RRIRKRPPRLPRPRPRPLEIPRP was 0.281; that for RRIRHRPPRLPRPRPRPIFDPRP was -0.0378; that for RRIRGRPPRLPRPRPRPYDPPRP was -0.0783.
For the sequence RRIRVRPPRLPRPRPRPWQIPRP, the “shrunken log2 fold change” value is 0.00686.
The figure for RRIRYRPPRLPRPRPRPHHSPRP is -1.27; for RRIRKRPPRLPRPRPRPCERPRP it is 0.019.
